Data as given in patent US20070293656A1, “COLLAGEN BINDING PEPTIDES” (Epix Pharmaceuticals, Inc., priority 2005, published 2007).
Bridge positions count the residues as written; N and C are the ends. Square brackets hold non-standard residues; d marks the D form. Primed or numbered codes have the meaning given here. Side chains are listed from the residue outwards. Ends that are not written are not given here. * marks the point of attachment. Glu‑DTPA‑Gd = N-terminal Glu-DTPA-Gd chelate (gadolinium DTPA complex on glutamic acid); Tyr(3-I) = N[C@@H](Cc1ccc(O)c(I)c1)C(=O)O; Glu‑DTPA‑Gd‑PEG(2O) = not defined here; Gd^T = not defined here; Gd^T″ = GdDTPA-thiourea; Cbz = O=C(OCc1ccccc1)*; AEEA = NCCOCCOCC(=O)O

B1: Comp ID 966 (peptide)
peptide: {Gd^T″}-GK([Gly-Gd^T″])WHCTTLFPHHVCLYG
modifications: disulfide 5-14 (inferred); not fully specified (C-terminus); printed as Gd^T-G-K(G.Gd^T)-WHCTTLFPHHVCLYG
B2: Comp ID 836 (peptide)
peptide: {Gd^T}-DWTCS[dS]DEYTWHCNYE
modifications: disulfide 4-13 (inferred); not fully specified (C-terminus); printed as Gd^T-DWTCSsDEYTWHCNYE; reading uncertain
B3: Comp ID 940 (peptide)
peptide: Cbz-GQWHCTK(Gd^T″)RFPHHYCLYG
modifications: disulfide 5-14 (inferred); not fully specified (C-terminus); printed as cbz-GQWHCT-K(Gd^T)-RFPHHYCLYG
B4: Comp ID 835 (peptide)
peptide: {Gd^T}-DWTCS[dA]DEYTWHCNYE
modifications: disulfide 4-13 (inferred); not fully specified (C-terminus); printed as Gd^T-DWTCSaDEYTWHCNYE; reading uncertain

Columns and labels:
Assay in all cases: dried collagen assay
[1] = target: rat collagen (acid soluble, type I, rat tail, Upstate 08-115) (rat) (UniProt P02454)
[2] = target: human collagen type I (acid soluble, extracted from placenta, Sigma C7774) (human) (UniProt P02452)
[3] = target: T1, human collagen type I (acid soluble, extracted from placenta, Sigma C7774) (human, UniProt P02452 162-1218; P08123 80-1119)
T1 construct: gelled and dried as a fibril film in the assay; also called dried human collagen; h-Collagen
Procedure: An additional 90 μL is reserved in a HPLC glass vial as a measure of the total concentration.

T1 sequence (P02452 162-1218 limits assumed, chain 1 of 2): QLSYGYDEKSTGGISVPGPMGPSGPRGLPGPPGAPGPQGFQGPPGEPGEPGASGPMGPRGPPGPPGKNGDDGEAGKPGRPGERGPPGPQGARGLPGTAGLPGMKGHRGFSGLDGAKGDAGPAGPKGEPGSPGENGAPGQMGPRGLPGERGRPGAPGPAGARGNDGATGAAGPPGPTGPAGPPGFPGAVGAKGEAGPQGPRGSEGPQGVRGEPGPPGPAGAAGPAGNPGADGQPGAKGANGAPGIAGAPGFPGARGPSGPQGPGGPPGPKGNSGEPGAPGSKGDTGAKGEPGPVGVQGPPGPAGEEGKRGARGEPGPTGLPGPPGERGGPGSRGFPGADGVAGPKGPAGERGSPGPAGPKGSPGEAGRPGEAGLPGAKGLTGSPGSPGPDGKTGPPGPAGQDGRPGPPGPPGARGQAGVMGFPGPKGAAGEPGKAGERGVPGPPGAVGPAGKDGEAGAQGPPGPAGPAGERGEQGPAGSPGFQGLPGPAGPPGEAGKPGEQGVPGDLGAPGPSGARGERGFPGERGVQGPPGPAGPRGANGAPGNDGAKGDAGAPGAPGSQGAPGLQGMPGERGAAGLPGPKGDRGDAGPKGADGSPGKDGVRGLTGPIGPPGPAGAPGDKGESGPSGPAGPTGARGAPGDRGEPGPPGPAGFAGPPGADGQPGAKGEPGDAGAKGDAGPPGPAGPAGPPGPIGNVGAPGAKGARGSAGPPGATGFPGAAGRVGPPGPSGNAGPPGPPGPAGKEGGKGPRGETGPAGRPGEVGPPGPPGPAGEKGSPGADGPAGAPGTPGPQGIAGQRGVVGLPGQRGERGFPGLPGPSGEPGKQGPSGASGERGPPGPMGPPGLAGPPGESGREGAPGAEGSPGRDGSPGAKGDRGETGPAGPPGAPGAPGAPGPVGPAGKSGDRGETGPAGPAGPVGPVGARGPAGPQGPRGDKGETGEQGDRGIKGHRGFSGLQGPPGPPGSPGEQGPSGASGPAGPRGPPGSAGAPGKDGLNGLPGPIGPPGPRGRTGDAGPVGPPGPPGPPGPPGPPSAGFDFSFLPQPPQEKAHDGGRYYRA
T1 sequence (P08123 80-1119 limits assumed, chain 2 of 2): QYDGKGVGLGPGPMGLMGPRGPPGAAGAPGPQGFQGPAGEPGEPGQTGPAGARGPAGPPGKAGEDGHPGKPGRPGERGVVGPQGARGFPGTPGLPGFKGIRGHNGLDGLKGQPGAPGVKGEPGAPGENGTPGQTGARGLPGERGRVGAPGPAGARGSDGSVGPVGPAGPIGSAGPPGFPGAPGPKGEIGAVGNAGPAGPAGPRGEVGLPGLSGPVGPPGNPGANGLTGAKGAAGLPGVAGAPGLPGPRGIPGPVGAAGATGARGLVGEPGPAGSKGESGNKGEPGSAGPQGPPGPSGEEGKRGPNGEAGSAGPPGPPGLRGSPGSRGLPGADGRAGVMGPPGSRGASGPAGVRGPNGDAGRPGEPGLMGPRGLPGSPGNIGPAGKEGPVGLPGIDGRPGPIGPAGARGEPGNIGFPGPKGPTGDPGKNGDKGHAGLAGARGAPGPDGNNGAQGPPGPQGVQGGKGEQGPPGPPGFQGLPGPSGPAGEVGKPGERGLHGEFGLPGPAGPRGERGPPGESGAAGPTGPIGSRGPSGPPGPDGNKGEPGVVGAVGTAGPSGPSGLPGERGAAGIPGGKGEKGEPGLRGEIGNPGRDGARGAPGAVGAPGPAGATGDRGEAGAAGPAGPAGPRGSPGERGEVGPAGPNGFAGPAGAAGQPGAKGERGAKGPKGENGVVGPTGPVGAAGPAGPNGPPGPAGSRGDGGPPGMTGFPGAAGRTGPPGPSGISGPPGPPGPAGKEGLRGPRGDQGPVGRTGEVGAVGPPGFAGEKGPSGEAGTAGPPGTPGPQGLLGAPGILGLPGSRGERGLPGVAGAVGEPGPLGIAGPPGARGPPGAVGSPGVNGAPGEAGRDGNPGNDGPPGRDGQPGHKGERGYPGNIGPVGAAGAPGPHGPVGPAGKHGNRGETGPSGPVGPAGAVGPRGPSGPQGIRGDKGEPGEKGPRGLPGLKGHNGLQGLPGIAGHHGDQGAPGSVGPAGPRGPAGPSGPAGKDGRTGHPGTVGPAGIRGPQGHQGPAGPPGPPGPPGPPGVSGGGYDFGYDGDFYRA
Chain of human collagen type I (acid soluble, extracted from placenta, Sigma C7774) (human) (P02452 162-1218 limits assumed, chain 1 of 2): as the sequence (P02452 162-1218 limits assumed, chain 1 of 2) above
Chain of human collagen type I (acid soluble, extracted from placenta, Sigma C7774) (human) (P08123 80-1119 limits assumed, chain 2 of 2, further chain): as the sequence (P08123 80-1119 limits assumed, chain 2 of 2) above
Chain of rat collagen (acid soluble, type I, rat tail, Upstate 08-115) (rat) (P02454 152-1207 limits assumed, chain 1 of 2): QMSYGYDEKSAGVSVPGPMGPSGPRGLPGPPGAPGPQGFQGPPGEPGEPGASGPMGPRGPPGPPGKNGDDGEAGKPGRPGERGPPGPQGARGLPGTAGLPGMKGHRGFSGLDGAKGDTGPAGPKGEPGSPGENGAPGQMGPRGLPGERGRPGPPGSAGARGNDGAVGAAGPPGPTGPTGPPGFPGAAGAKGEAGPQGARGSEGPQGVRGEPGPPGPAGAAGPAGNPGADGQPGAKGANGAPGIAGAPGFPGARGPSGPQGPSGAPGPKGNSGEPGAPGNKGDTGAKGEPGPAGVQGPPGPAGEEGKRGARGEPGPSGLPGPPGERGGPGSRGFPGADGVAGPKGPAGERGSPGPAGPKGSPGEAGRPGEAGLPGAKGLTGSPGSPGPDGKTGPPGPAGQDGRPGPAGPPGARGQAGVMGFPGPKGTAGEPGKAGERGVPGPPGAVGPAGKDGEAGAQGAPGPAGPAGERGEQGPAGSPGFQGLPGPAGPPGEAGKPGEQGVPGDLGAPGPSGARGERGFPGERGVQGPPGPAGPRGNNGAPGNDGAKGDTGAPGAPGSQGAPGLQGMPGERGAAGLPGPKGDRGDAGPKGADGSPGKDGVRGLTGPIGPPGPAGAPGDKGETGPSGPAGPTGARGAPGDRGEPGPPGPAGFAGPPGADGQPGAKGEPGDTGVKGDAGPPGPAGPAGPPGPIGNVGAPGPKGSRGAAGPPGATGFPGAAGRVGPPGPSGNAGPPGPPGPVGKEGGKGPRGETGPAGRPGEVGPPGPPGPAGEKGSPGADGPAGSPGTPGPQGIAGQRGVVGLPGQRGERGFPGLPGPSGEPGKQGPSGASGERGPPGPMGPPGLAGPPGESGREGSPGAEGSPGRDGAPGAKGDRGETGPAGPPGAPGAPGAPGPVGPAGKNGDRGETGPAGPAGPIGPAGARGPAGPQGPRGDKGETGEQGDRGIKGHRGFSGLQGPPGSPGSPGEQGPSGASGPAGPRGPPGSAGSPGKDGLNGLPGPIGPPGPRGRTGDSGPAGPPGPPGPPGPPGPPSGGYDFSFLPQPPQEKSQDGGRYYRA
Chain of rat collagen (acid soluble, type I, rat tail, Upstate 08-115) (rat) (P02466 86-1125 limits assumed, chain 2 of 2, further chain): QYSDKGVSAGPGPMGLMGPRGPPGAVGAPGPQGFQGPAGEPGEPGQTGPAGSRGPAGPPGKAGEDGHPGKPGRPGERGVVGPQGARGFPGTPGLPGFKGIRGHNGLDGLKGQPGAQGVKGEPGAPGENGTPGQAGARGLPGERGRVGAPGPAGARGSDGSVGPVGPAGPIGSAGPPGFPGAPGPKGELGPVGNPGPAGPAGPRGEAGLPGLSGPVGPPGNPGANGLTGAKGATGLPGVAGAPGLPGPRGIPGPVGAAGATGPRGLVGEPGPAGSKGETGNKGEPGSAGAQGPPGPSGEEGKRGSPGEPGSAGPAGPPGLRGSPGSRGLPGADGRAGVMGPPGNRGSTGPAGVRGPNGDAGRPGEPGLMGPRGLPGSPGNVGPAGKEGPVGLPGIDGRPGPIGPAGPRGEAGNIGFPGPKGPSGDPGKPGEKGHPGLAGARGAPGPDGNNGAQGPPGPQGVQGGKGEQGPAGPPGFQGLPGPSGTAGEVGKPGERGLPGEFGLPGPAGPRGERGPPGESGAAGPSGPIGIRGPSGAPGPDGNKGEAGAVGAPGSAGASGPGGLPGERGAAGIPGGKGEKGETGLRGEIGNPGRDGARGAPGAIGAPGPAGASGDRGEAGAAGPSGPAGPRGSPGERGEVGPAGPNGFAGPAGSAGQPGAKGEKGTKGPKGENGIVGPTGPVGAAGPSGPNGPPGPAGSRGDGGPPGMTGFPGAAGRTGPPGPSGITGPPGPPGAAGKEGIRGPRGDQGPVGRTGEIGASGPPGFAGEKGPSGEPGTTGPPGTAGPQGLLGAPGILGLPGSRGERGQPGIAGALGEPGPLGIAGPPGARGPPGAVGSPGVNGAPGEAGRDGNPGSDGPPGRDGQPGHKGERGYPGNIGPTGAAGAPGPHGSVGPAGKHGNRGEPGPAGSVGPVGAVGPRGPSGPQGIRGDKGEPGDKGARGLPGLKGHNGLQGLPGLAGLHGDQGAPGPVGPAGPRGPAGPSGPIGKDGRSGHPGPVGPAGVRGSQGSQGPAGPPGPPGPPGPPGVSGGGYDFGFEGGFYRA

Binder | % bound [1] [%] | % bound [2] [%] | % bound [3] [%]
{Gd^T}-DWTCSGDE[Tyr(3-I)]TWHCNYE (disulfide 4-13 (inferred); not fully specified (C-terminus); reading uncertain) [Comp ID 846] | 9 |  | 
GWSCHGDAADWPCQWS (disulfide 4-13 (inferred)) [SEQ ID NO: 38] |  | 6 | 
GQWTCSGDEYTWHCAYE (not fully specified; Gd^T-GQWTCSGDEYTWHCAYE) [Comp ID 839] | 11 |  | 
GQWHCTTRFPHHYCAYG (not fully specified; Gd^T-GQWHCTTRFPHHYCAYG) [Comp ID 855] |  | 27 | 
{Gd^T″}-GQWTCSGDEYAWHCNY[dE] (disulfide 5-14 (inferred)) [Comp ID 832] | 4 | 12 | 
FSECVWVNAYQCEYF (disulfide 4-12 (inferred)) [SEQ ID NO: 113] |  | 3 | 
SWYCDWDDRKGWMCGSD (disulfide 4-14 (inferred)) [SEQ ID NO: 86] |  |  | 2
SWYCNNGSYGQWHCEHR (disulfide 4-14 (inferred)) [SEQ ID NO: 80] |  | 6 | 
B1 | 8 |  | 
GQWHCTTDFPHHYCLYG (not fully specified; Gd^T-GQWHCTTD-F(4-CN)-PHHYCLYG) [Comp ID 883] | 2 | 8 | 
KWECVHTKGEWYCETK (disulfide 4-13 (inferred)) [SEQ ID NO: 65] |  | 7 | 
RWSCVLDADGWVCSDN (disulfide 4-13 (inferred)) [SEQ ID NO: 66] |  | 6 | 
DWTCSGDEYRWHCNYE (not fully specified; Gd^T-DWTCSGDEYRWHCNYE) [Comp ID 845] | 10 |  | 
B2 | 8 | 13 | 
TWACDLDEYGGWQCYTG (disulfide 4-14 (inferred)) [SEQ ID NO: 78] |  | 8 | 
{Gd^T}-DWTCS[dL]DEYTWHCNYE (disulfide 4-13 (inferred); not fully specified (C-terminus); reading uncertain) [Comp ID 847] | 7 | 16 | 
GWSCHSMDMQWHCDFS (disulfide 4-13 (inferred)) [SEQ ID NO: 67] |  | 5 | 
{Gd^T″}-DWTCSGDEYYWHCNYE (disulfide 4-13 (inferred)) [Comp ID 834] | 9 | 22 | 
{Gd^T″}-GQWTCSGDEYTWACNYE (disulfide 5-14 (inferred)) [Comp ID 833] | 4 | 13 | 
GQWHCTTDFPHHYCLYG (not fully specified; Gd^T-GQWHCTTD-F(3,4-OMe)-PHHYCLYG) [Comp ID 893] | 2 | 4 | 
GQWHCTTRFPHHRCLYG (not fully specified; Gd^T-GQWHCTTRFPHHrCLYG) [Comp ID 902] |  | 7 | 
GQWHCTTDFPHXYCLYG (not fully specified; Gd^T-GQWHCTTDFPH-Dpr-YCLYG) [Comp ID 886] |  | 8 | 
B3 | 8 |  | 
HWTCDQAKGGAWSCSST (disulfide 4-14 (inferred)) [SEQ ID NO: 87] |  |  | 1
SWSCGGDHNAWKCQYS (disulfide 4-13 (inferred)) [SEQ ID NO: 36] |  | 7 | 

Binder | % bound [1] [%] | % bound [2] [%] | % bound [3] [%]
WQVCADSPGVITYCYTY (disulfide 4-14 (inferred)) [SEQ ID NO: 98] |  | 5 | 
GQWACSGDEYTWHCNYE (not fully specified; Gd^T-GQWACSGDEYTWHCNYE) [Comp ID 840] | 3 | 15 | 
GWQCSGDASVWNCDWI (disulfide 4-13 (inferred)) [SEQ ID NO: 39] |  | 6 | 
YHACYQAGCYIW (disulfide 4-9 (inferred)) [SEQ ID NO: 107] | 6 |  | 9
B4 | 9 | 17 | 
DWTCSGDEYTWYCNYE (not fully specified; Gd^T-DWTCSGDEYTWYCNYE) [Comp ID 842] | 9 | 23 | 
{Gd^T″}-GAWTCSGDEYTWHCNYE (disulfide 5-14 (inferred)) [Comp ID 830] | 11 | 26 | 
GQWHCTTRFPHHXCLYG (not fully specified; Gd^T-GQWHCTTRFPHH-1-nal-CLYG) [Comp ID 904] | 3 |  | 
DWTCSGDEYTWHCNYE (not fully specified; Gd^T-DWTCSGDEYTWHCNYE) [Comp ID 848] | 9 |  | 
ERNCVLNDFRWTCGGD (disulfide 4-13 (inferred)) [SEQ ID NO: 75] |  | 10 | 
GQWHCTTDYPHHYCLYG (not fully specified; Gd^T-GQWHCTTD-Y(3-Cl)-PHHYCLYG) [Comp ID 895] |  | 7 | 
{Gd^T″}-GQWHCTTRFPHHYCLYG[dK](Gd^T″) (disulfide 5-14 (inferred)) [Comp ID 808] |  | 25 | 
{Glu‑DTPA‑Gd}-GGDWTCVGDHKTWKCNFH-NH2 (disulfide 6-15 (inferred)) [Compound ID 1023] | 12 |  | 
PWTCSGDEYAWHCNYE (Gd^G-PWTCSGDEYAWHCNYe) [Comp ID 824] |  | 12 | 
{Glu‑DTPA‑Gd‑PEG(2O)}-GQWTCSGDEYTWHCNY[dE]-NH2 (disulfide 5-14 (inferred); reading uncertain) [Compound ID 1026] | 5 |  | 
SWHCFLENHHWMCSDH (disulfide 4-13 (inferred)) [SEQ ID NO: 68] |  | 5 | 
GWQCQGTDSLDWKCLYM (disulfide 4-14 (inferred)) [SEQ ID NO: 77] |  | 12 | 
PWWCHEMPSMCFGF (disulfide 4-11 (inferred)) [SEQ ID NO: 3] |  | 2 | 
FWTCELDFRQSWYCYDK (disulfide 4-14 (inferred)) [SEQ ID NO: 79] |  | 8 | 
YHACYQAGCYIY (disulfide 4-9 (inferred)) [SEQ ID NO: 108] | 12 | 5 | 
{Glu‑DTPA‑Gd}-WWGCRQGTGEHWSHCMWF-{AEEA-Glu‑DTPA‑Gd} (cysteine pairing not given here; also: Gd chelated by DTPA at each end) [SEQ ID NO: 195] | 9 |  | 
GQWHCTTRFPHHTCLYG (not fully specified; Gd^T-GQWHCTTRFPHHtCLYG) [Comp ID 905] |  | 6 | 
GWQCFGASDWHCTWV (disulfide 4-12 (inferred)) [SEQ ID NO: 8] |  | 9 | 
{Gd^T″}-DWTCS[dY]DEYTWHCNYE (disulfide 4-13 (inferred)) [Comp ID 829] |  | 20 | 
LWNCHGTDANWKCVLN (disulfide 4-13 (inferred)) [SEQ ID NO: 37] |  | 7 | 
